Where no end group is shown, it is not given here. [ ]: non-standard residue; d: D form. The star is where a group is joined. Hexanoyl = CCCCCC(=O)*; Aib = CC(C)(N)C(=O)O
T1: rat VPAC2 receptor (rat, UniProt P35000 23-437)
T1 construct: whole, on cells; transfected CHO-PO cells in DiscoveRx
T1 sequence (looked up): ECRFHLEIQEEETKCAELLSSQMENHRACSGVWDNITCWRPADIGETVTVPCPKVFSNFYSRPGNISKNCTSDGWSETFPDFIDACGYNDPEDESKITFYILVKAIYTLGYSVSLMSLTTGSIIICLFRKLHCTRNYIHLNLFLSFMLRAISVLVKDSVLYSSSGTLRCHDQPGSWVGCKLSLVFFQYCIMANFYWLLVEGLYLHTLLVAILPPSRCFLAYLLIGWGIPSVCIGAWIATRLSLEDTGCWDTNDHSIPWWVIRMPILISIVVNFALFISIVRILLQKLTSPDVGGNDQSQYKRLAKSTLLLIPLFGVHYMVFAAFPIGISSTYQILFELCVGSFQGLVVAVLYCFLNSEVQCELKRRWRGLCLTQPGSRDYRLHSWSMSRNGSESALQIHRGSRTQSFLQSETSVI

T2: rat VPAC1 receptor (rat, UniProt P30083 31-459)
T2 sequence (looked up): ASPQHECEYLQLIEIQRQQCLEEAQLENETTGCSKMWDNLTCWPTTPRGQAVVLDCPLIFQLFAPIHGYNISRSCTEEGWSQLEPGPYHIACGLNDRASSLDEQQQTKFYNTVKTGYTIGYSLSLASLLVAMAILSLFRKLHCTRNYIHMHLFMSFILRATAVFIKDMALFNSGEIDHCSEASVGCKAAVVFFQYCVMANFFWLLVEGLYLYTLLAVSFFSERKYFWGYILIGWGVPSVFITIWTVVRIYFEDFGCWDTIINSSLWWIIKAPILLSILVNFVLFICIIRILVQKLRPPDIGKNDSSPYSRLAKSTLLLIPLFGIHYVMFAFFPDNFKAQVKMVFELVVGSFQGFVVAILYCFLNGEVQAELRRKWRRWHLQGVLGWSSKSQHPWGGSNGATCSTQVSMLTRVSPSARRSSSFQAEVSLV

T3: human VPAC2 receptor (human, UniProt P41587 24-438)
T3 sequence (looked up): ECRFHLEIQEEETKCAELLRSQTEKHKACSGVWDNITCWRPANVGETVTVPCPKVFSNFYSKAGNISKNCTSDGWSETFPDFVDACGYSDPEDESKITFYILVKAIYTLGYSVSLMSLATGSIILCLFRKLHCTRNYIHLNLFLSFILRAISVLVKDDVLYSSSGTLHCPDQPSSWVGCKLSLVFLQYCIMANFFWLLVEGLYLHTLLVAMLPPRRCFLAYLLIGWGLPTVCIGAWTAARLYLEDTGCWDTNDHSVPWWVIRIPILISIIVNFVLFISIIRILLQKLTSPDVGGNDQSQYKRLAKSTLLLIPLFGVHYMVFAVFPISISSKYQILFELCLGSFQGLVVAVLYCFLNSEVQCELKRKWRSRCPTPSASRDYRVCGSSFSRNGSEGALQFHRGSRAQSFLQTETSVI

T4: rat PAC1 receptor (rat, UniProt P32215 20-523)
T4 sequence (looked up): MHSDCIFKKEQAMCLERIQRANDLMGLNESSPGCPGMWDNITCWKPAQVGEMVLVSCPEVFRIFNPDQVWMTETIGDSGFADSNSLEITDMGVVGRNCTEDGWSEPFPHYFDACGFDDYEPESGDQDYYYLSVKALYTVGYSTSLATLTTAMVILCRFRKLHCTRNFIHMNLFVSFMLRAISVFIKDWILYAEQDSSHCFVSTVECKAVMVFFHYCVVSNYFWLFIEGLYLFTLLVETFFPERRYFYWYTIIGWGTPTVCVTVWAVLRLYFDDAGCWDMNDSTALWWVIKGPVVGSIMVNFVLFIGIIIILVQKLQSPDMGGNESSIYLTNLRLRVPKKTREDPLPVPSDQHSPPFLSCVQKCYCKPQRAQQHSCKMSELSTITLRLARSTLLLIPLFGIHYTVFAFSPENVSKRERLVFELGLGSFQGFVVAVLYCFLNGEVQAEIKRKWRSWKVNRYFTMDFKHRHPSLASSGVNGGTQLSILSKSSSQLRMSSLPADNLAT

T5: human VPAC1 receptor (human, UniProt P32241 31-457)
T5 sequence (looked up): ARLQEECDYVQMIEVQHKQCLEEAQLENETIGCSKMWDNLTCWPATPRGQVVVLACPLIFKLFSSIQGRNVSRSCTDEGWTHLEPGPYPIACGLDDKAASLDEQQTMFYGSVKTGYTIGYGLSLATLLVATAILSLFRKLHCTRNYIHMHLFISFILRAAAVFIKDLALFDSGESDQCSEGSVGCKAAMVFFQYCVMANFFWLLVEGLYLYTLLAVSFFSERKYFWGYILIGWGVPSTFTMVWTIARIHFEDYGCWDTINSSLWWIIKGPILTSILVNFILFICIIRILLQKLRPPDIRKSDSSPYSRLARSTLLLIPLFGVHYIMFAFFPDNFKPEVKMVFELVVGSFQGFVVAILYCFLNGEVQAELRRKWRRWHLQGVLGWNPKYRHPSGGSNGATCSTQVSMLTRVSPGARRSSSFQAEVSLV

T6: human PAC1 receptor (human, UniProt P41586 21-468)
T6 sequence (looked up): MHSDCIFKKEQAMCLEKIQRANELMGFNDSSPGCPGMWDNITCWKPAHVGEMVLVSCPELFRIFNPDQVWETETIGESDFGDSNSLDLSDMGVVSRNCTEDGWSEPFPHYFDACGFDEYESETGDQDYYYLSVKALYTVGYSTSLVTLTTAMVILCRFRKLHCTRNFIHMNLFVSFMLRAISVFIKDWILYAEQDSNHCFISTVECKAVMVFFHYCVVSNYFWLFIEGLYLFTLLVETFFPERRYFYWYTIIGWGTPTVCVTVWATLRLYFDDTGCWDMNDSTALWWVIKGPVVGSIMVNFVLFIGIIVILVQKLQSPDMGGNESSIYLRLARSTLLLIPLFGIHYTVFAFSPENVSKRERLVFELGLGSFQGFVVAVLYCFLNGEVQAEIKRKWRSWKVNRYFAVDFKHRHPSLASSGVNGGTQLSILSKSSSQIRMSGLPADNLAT


Assays:
[1] = biological target: T1, rat VPAC2 receptor; assay: IC50 on rat VPAC1 over IC50 on rat VPAC2
Excerpt: Each assay is done in duplicate and performed on two different membrane preparations.
TABLE 3 Binding data are expressed as the IC₅₀ values of tracer inhibition. A different reference compound is used as the tracer for the VPAC1 receptor and for the VPAC2 receptor. The last column represents the ratio between the IC₅₀ values on VPAC1 and VPAC2 receptor and is, thus, an index of selectivity for a receptor subtype. […] The values are given with the standard error.

[2] = biological target: T1, rat VPAC2 receptor; assay: cell-based or functional assay
[3] = biological target: T2, rat VPAC1 receptor; assay: cell-based or functional assay
[4] = biological target: T3, human VPAC2 receptor; assay: cell-based or functional assay
[5] = biological target: T1, rat VPAC2 receptor; assay: cell-based or functional assay; remark: listed apart in the source
[6] = biological target: T2, rat VPAC1 receptor; assay: cell-based or functional assay; remark: listed apart in the source
[7] = biological target: T4, rat PAC1 receptor; assay: cell-based or functional assay
[8] = biological target: T5, human VPAC1 receptor; assay: cell-based or functional assay
[9] = biological target: T6, human PAC1 receptor; assay: cell-based or functional assay

Binder	VPAC1/VPAC2 (ratio of IC50 values) [1]	EC50 cAMP, DiscoveRx [2]	EC50 cAMP, DiscoveRx [3]	EC50 cAMP, Alpha Screen [4]	VPAC1/VPAC2 (EC50 ratio) [5]	cAMP max [5]	cAMP max [6]	adenylate cyclase potency ratio compared to PACAP-27 [7]	EC50 cAMP, DiscoveRx [8]	EC50 cAMP, DiscoveRx [4]	EC50 cAMP, DiscoveRx [9]
Hexanoyl-HSDAVFTDNYTRLR[Aib]QVAA[Aib]KYLQSIKNKRYGGPSSGAPPPS (ends and bridges not checked) [P261]	363	0.04 nM	0.35 nM	0.09 nM	200	78.5	126	–	–	–	–
Hexanoyl-HSDAVFTDNYTRLR[Aib]QLAA[Aib]KYLQSIKNKGGPSSGAPPPS (ends and bridges not checked) [P292]	269	0.07 nM	1.91 nM	0.23 nM	100	79.1	124	–	–	–	–
Hexanoyl-HSDAVFTDNYTRLRKQVAAKKYLQSIKNKRYGGPSSGAPPPS (also called VPAC2-P31) [P31]	546	–	0.44 nM	0.13 nM	174	134	200	> 200 fold	6 nM	0.11 nM	116 nM
